T1: Set1 (S. cerevisiae, UniProt P38827 1-1080)
T1 construct: Set1, histone H3K4 methyltransferase subunit of COMPASS, S. cerevisiae, full length; also called TAP-Set1; TAP-SET1; source: S. cerevisiae (strain yCOS2), overexpressed from the GAL1-10 promoter with the six Cps subunits; in lysate for the TAP purification; then purified as the COMPASS complex (IgG-Sepharose, TEV, calmodulin-Sepharose, glycerol gradient or GraFix); not shown: TAP, N-terminal, kept
T1 sequence (looked up): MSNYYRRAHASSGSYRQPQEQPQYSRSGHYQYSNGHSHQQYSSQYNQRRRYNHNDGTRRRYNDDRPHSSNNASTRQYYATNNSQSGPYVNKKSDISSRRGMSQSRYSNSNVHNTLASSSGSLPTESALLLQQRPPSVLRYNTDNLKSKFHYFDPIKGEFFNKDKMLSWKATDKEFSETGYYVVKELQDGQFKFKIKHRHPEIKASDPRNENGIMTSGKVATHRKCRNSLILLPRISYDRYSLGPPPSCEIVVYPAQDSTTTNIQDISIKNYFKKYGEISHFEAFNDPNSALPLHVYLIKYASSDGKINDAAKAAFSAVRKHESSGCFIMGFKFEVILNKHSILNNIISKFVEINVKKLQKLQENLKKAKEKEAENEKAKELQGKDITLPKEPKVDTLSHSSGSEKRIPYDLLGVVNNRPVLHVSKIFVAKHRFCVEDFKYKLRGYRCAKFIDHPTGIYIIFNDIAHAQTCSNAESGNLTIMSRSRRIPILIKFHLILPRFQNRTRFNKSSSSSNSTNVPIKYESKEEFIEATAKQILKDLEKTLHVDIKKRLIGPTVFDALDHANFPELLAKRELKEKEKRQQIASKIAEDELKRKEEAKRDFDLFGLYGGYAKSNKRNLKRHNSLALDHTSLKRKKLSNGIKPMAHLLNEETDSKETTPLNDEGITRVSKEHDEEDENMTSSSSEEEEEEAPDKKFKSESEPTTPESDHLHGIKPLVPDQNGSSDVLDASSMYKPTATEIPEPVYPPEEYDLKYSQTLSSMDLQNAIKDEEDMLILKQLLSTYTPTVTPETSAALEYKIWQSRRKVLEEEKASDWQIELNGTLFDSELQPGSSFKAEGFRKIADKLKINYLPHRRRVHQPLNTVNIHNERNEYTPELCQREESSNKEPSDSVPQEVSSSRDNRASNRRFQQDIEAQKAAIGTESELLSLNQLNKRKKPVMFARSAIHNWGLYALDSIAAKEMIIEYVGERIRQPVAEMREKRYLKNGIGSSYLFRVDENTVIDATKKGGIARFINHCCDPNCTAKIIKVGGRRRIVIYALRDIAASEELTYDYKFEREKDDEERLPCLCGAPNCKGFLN

B1: Cps50/Swd1 (natural protein, S. cerevisiae, UniProt P39706 1-426, looked up)
chain: MNILLQDPFAVLKEHPEKLTHTIENPLRTECLQFSPCGDYLALGCANGALVIYDMDTFRPICVPGNMLGAHVRPITSIAWSPDGRLLLTSSRDWSIKLWDLSKPSKPLKEIRFDSPIWGCQWLDAKRRLCVATIFEESDAYVIDFSNDPVASLLSKSDEKQLSSTPDHGYVLVCTVHTKHPNIIIVGTSKGWLDFYKFHSLYQTECIHSLKITSSNIKHLIVSQNGERLAINCSDRTIRQYEISIDDENSAVELTLEHKYQDVINKLQWNCILFSNNTAEYLVASTHGSSAHELYIWETTSGTLVRVLEGAEEELIDINWDFYSMSIVSNGFESGNVYVWSVVIPPKWSALAPDFEEVEENVDYLEKEDEFDEVDEAEQQQGLEQEEEIAIDLRTREQYDVRGNNLLVERFTIPTDYTRIIKMQSS
notes: Cps50/Swd1, WD40 repeat subunit of COMPASS, S. cerevisiae, full length; source: S. cerevisiae (strain yCOS2), overexpressed from the GAL1-10 promoter; in lysate for the TAP purification; then co-purified with TAP-Set1 as the COMPASS complex
B2: Cps60/Bre2 (natural protein, S. cerevisiae, UniProt P43132 1-505, looked up)
chain: MKLGIIPYQEGTDIVYKNALQGQQEGKRPNLPQMEATHQIKSSVQGTSYEFVRTEDIPLNRRHFVYRPCSANPFFTILGYGCTEYPFDHSGMSVMDRSEGLSISRDGNDLVSVPDQYGWRTARSDVCIKEGMTYWEVEVIRGGNKKFADGVNNKENADDSVDEVQSGIYEKMHKQVNDTPHLRFGVCRREASLEAPVGFDVYGYGIRDISLESIHEGKLNCVLENGSPLKEGDKIGFLLSLPSIHTQIKQAKEFTKRRIFALNSHMDTMNEPWREDAENGPSRKKLKQETTNKEFQRALLEDIEYNDVVRDQIAIRYKNQLFFEATDYVKTTKPEYYSSDKRERQDYYQLEDSYLAIFQNGKYLGKAFENLKPLLPPFSELQYNEKFYLGYWQHGEARDESNDKNTTSAKKKKQQQKKKKGLILRNKYVNNNKLGYYPTISCFNGGTARIISEEDKLEYLDQIRSAYCVDGNSKVNTLDTLYKEQIAEDIVWDIIDELEQIALQQ
notes: Cps60/Bre2, subunit of COMPASS, S. cerevisiae, full length; source: S. cerevisiae (strain yCOS2), overexpressed from the GAL1-10 promoter; in lysate for the TAP purification; then co-purified with TAP-Set1 as the COMPASS complex

What was measured:
Set1 [1] = target: T1, Set1; assay: cryo-EM structure; complete COMPASS after GraFix (glutaraldehyde), map at 10.0 Å; subunits placed by DID, PA-NZ-1 Fab and eGFP labelling and by docking of homology models; settings: both partners purified
Set1 [2] = target: T1, Set1; assay: cross-linking; purified COMPASS from the glycerol gradient cross-linked with 1 mM disuccinimidyl suberate (DSS), on ice 2 h; trypsin digest, LC-MS/MS, pLink and xlinkx (XL-MS); settings: both partners purified
Cps60/Bre2 = target: B2; assay: as above; settings: both partners purified
Set1 [3] = target: T1, Set1; assay: tandem affinity purification (TAP), SDS-PAGE; yeast lysate; TAP-Set1 held on IgG-Sepharose, washed with 350 mM NaCl, TEV elution, calmodulin-Sepharose, EGTA elution, then glycerol gradient centrifugation; subunits seen by SDS-PAGE; settings: partners not purified
Cps50/Swd1 = target: B1; assay: cryo-EM structure; complete COMPASS after GraFix (glutaraldehyde), map at 10.0 Å; subunits placed by DID, PA-NZ-1 Fab and eGFP labelling and by docking of homology models; settings: both partners purified

| binding result (Set1 [1]) | binding result (Set1 [2]) | Binder | also measured |
| --- | --- | --- | --- |
| binds |  | B1 |  |
|  | binds | Cps25/Sdc1 (natural protein, S. cerevisiae, UniProt Q03323 1-175, looked up, Cps25/Sdc1, subunit of COMPASS, S. cerevisiae, full length; source: S. cerevisiae (strain yCOS2), overexpressed from the GAL1-10 promoter; in lysate for the TAP purification; then co-purified with TAP-Set1 as the COMPASS complex) MNESENSPQHNEVTVPMVEDTSSNADIPMEQIQREDNKNYDKHDNECFDMNGNHNNNSDNLQFDSVPSSATKDLKNIKSVTNQNVKIEESSSTNSVIEESSEPKISKLENVNLAATVGGSQTRKYLNTNVTPHLLAGMRLIAVQQPEDPLRVLGEYLIEQSNILKSGEKESNASK | binding result (Cps60/Bre2): binds |
|  | binds | Cps35/Swd2 (natural protein, S. cerevisiae, UniProt P36104 1-329, looked up, Cps35/Swd2, WD40 repeat subunit of COMPASS, S. cerevisiae, full length; source: S. cerevisiae (strain yCOS2), overexpressed from the GAL1-10 promoter; in lysate for the TAP purification; then co-purified with TAP-Set1 as the COMPASS complex) MTTVSINKPNLLKFKHVKSFQPQEKDCGPVTSLNFDDNGQFLLTSSSNDTMQLYSATNCKFLDTIASKKYGCHSAIFTHAQNECIYSSTMKNFDIKYLNLETNQYLRYFSGHGALVNDLKMNPVNDTFLSSSYDESVRLWDLKISKPQVIIPSLVPNCIAYDPSGLVFALGNPENFEIGLYNLKKIQEGPFLIIKINDATFSQWNKLEFSNNGKYLLVGSSIGKHLIFDAFTGQQLFELIGTRAFPMREFLDSGSACFTPDGEFVLGTDYDGRIAIWNHSDSISNKVLRPQGFIPCVSHETCPRSIAFNPKYSMFVTADETVDFYVYDE |  |
|  |  | B2 | binding result (Set1 [3]): binds |
|  | binds | Cps40/Spp1 (natural protein, S. cerevisiae, UniProt Q03012 1-353, looked up, Cps40/Spp1, subunit of COMPASS, S. cerevisiae, full length; source: S. cerevisiae (strain yCOS2), overexpressed from the GAL1-10 promoter; in lysate for the TAP purification; then co-purified with TAP-Set1 as the COMPASS complex) MSLPQWCPPHSTLKRNPTTGEDVYCICKRPDYGELMVGCDGCDDWFHFTCLHIPEQFKDLVFSFYCPYCQAGITGKNKDAIINGEGSLPKTLWKRKCRISDCYKPCLQDSKYCSEEHGREFVNDIWSRLKTDEDRAVVKKMVEQTGHIDKFKKFGQLDFIDNNIVVKTDDEKEIFDQIVVRDMTLKTLEDDLQEVQEISLPLFKKKLELLEVYLGWLDNVYTEMRKLDDDAASHVECGKEDSKGTKRKKKKNSSRSRARKNICGYCSTYERIPCSVEEFVRDFGSNEEATKIHEVCTKWKCNRHLDWVSTNQEQYLQQIDSLESMQERLQHLIQARKKQLNIQYYEEILRRGL |  |
| binds |  | Cps30/Swd3 (natural protein, S. cerevisiae, UniProt P38123 1-315, looked up, Cps30/Swd3, WD40 repeat subunit of COMPASS, S. cerevisiae, full length; source: S. cerevisiae (strain yCOS2), overexpressed from the GAL1-10 promoter; in lysate for the TAP purification; then co-purified with TAP-Set1 as the COMPASS complex) MFQFVTPVGTQNGLKATCAKISPDGQFLAITQGLNILIYDINRRTVSQTLVTSHARPFSELCWSPDGQCIATASDDFSVEIIHLSYGLLHTFIGHTAPVISLTFNRKGNLLFTSSMDESIKIWDTLNGSLMKTISAHSEAVVSVDVPMNDSSILSSGSYDGLIRIFDAETGHCLKTLTYDKDWKRENGVVPISQVKFSENARYLLVKSLDGVVKIWDCIGGCVVRTFQVQPLEKGVLHHSCGMDFLNPEDGSTPLVISGYENGDIYCWNSDTKSLLQLLDGSLYHHSSPVMSIHCFGNIMCSLALNGDCCLWRWV | binding result (Cps50/Swd1): binds |

— paper PMC6258710, “Architecture and subunit arrangement of the complete Saccharomyces cerevisiae COMPASS complex” (Scientific Reports, 2018)
